These are literature values, as cited in paper PMC7883480.

One series has as its target CXCR4 (Homo sapiens) (UniProt P61073). Briefly: radioligand competitive displacement.
Series [1] has as its target GIP receptor (Homo sapiens) (UniProt P48546). Briefly: competitive binding assay.
The target of series [2] is GLP-1 receptor (Homo sapiens) (UniProt P43220). Briefly: SPA binding assay.

Take CXCL12 3-68 (from UniProt P48061): the Kd in the series with CXCR4 (Homo sapiens) was 464 nM.

As to CXCL12 1-68 (from UniProt P48061), in the series with CXCR4 (Homo sapiens), the Kd is 1.44 nM.

For the substance GIP 1-30 (from UniProt P09681), in series [1], the Ki was 0.89 nM.

As to GIP 3-30 (from UniProt P09681), the Ki in series [1] is 2.3 nM.

On to GLP-1 7-36 (from UniProt P01275), for which the Ki in series [2] was 0.102 nM.

In the case of GLP-1 9-36 (from UniProt P01275), in series [2], the inhibitory constant (Ki) was 156 nM.

In general, Kd refers to the free concentration of one partner at which half of the binding sites on the other are occupied at equilibrium, for simple one-to-one binding. As usually defined, the Ki is a measure of affinity in units of concentration, obtained from inhibition or displacement.
